For this test, the target named is Tom20 (Chaetomium thermophilum) (Chaetomium thermophilum). As to the kind of experiment: cryo-EM structure; TOM complex purified by Tom22-FLAG in GDN, with or without pALDH (maps showed no differences); core 2.7 Å and holo 3.2 Å (pALDH-incubated), core 3.2 Å and holo 3.8 Å (preprotein-free), C2 symmetry imposed.

This passage reports stoichiometry N results from PMC12305020.

By stoichiometry N is commonly meant the number of molecules, sites or subunits per partner or assembly. “Tom20 (Chaetomium thermophilum) (receptor)” displayed a stoichiometry N of 2.
